# US20240117018A1
# Key:
# Test in all cases: cell-based or functional assay
# [1] = biological target: 0260.v5.c36 Env pseudovirus (HIV-1)
# [2] = biological target: 1012_11_TC21_3257 Env pseudovirus (HIV-1)
# [3] = biological target: 191084 B7-19 Env pseudovirus (HIV-1)
# [4] = biological target: 249M B10 Env pseudovirus (HIV-1)
# [5] = biological target: 3365.v2.c2 Env pseudovirus (HIV-1)
# [6] = biological target: 3415.v1.c1 Env pseudovirus (HIV-1)
# [7] = biological target: 6240_08_TA5_4622 Env pseudovirus (HIV-1)
# [8] = biological target: 6244_13_B5_4576 Env pseudovirus (HIV-1)
# [9] = biological target: 7030102001E5(Rev-) Env pseudovirus (HIV-1)
# [10] = biological target: BF1266.431a Env pseudovirus (HIV-1)
# [11] = biological target: CAP210.2.00.E8 Env pseudovirus (HIV-1)
# [12] = biological target: CNE20 Env pseudovirus (HIV-1)
# [13] = biological target: CNE21 Env pseudovirus (HIV-1)
# [14] = biological target: CNE30 Env pseudovirus (HIV-1)
# [15] = biological target: Ce0393_C3 Env pseudovirus (HIV-1)
# [16] = biological target: Ce0682_E4 Env pseudovirus (HIV-1)
# [17] = biological target: Ce1086_B2 Env pseudovirus (HIV-1)
# [18] = biological target: Ce2060_G9 Env pseudovirus (HIV-1)
# [19] = biological target: Ce704809221_1B3 Env pseudovirus (HIV-1)
# [20] = biological target: Du156.12 Env pseudovirus (HIV-1)
# [21] = biological target: Du172.17 Env pseudovirus (HIV-1)
# [22] = biological target: MS208.A1 Env pseudovirus (HIV-1)
# [23] = biological target: PVO.4 Env pseudovirus (HIV-1)
# [24] = biological target: Q23.17 Env pseudovirus (HIV-1)
# [25] = biological target: Q461.e2 Env pseudovirus (HIV-1)
# [26] = biological target: Q769.d22 Env pseudovirus (HIV-1)
# [27] = biological target: SC05_8C11_2344 Env pseudovirus (HIV-1)
# [28] = biological target: SC422661.8 Env pseudovirus (HIV-1)
# [29] = biological target: T257-31 Env pseudovirus (HIV-1)
# [30] = biological target: THRO4156.18 Env pseudovirus (HIV-1)
# [31] = biological target: WITO4160.33 Env pseudovirus (HIV-1)
# [32] = biological target: ZM109F.PB4 Env pseudovirus (HIV-1)
# [33] = biological target: ZM214M.PL15 Env pseudovirus (HIV-1)
# [34] = biological target: ZM233M.PB6 Env pseudovirus (HIV-1)
# [35] = biological target: ZM249M.PL1 Env pseudovirus (HIV-1)
# [36] = biological target: ZM53M.PB12 Env pseudovirus (HIV-1)
binder,measurement,setting,value
"N49P23 (antibody, V domains shown) VH: QVRLVQSGAGARKTGASMKLSCSTSGYTFTTHHGHFINWVRQARGQGLEWMGWMNPMTGQMNIEGKFQGRVTLTRDIYSDTAYMEMTRLTTGDTGTYYCARGDFGQNYPFHYWGQGSLVIVSS VL: LSALTQPASVSGSPGQSVTISCSGTNRYLVSWYQQHPDKAPKLIIYDDNKRPSGISDRFSASRPDDTASLTISGLQTGDEATYWCASYERFGGGTRLTVLS",IC50,[1],0.261 µg/mL
same,IC80,[1],0.919 µg/mL
same,MPI,[1],100
same,IC50,[2],0.013 µg/mL
same,IC80,[2],0.085 µg/mL
same,MPI,[2],100
same,IC50,[3],0.013 µg/mL
same,IC80,[3],0.043 µg/mL
same,MPI,[3],100
same,IC50,[4],> 50 µg/mL
same,IC80,[4],> 50 µg/mL
same,MPI,[4],20
same,IC50,[5],0.017 µg/mL
same,IC80,[5],0.053 µg/mL
same,MPI,[5],100
same,IC50,[6],0.054 µg/mL
same,IC80,[6],0.19 µg/mL
same,MPI,[6],100
same,IC50,[7],0.215 µg/mL
same,IC80,[7],1 µg/mL
same,MPI,[7],100
same,IC50,[8],0.151 µg/mL
same,IC80,[8],0.57 µg/mL
same,MPI,[8],100
same,IC50,[9],0.172 µg/mL
same,IC80,[9],0.797 µg/mL
same,MPI,[9],100
same,IC50,[10],0.083 µg/mL
same,IC80,[10],0.44 µg/mL
same,MPI,[10],99
same,IC50,[11],> 50 µg/mL
same,IC80,[11],> 50 µg/mL
same,MPI,[11],2
same,IC50,[12],45.4 µg/mL
same,IC80,[12],> 50 µg/mL
same,MPI,[12],51
same,IC50,[13],> 50 µg/mL
same,IC80,[13],> 50 µg/mL
same,MPI,[13],0
same,IC50,[14],0.143 µg/mL
same,IC80,[14],0.68 µg/mL
same,MPI,[14],100
same,IC50,[15],> 50 µg/mL
same,IC80,[15],> 50 µg/mL
same,MPI,[15],29
same,IC50,[16],1.39 µg/mL
same,IC80,[16],> 50 µg/mL
same,MPI,[16],76
same,IC50,[17],0.063 µg/mL
same,IC80,[17],0.303 µg/mL
same,MPI,[17],100
same,IC50,[18],0.18 µg/mL
same,IC80,[18],0.849 µg/mL
same,MPI,[18],99
same,IC50,[19],0.083 µg/mL
same,IC80,[19],0.643 µg/mL
same,MPI,[19],100
same,IC50,[20],> 50 µg/mL
same,IC80,[20],> 50 µg/mL
same,MPI,[20],0
same,IC50,[21],> 50 µg/mL
same,IC80,[21],> 50 µg/mL
same,MPI,[21],45
same,IC50,[22],0.048 µg/mL
same,IC80,[22],0.279 µg/mL
same,MPI,[22],100
same,IC50,[23],0.087 µg/mL
same,IC80,[23],0.43 µg/mL
same,MPI,[23],100
same,IC50,[24],0.01 µg/mL
same,IC80,[24],0.046 µg/mL
same,MPI,[24],100
same,IC50,[25],0.099 µg/mL
same,IC80,[25],0.464 µg/mL
same,MPI,[25],100
same,IC50,[26],0.005 µg/mL
same,IC80,[26],0.025 µg/mL
same,MPI,[26],100
same,IC50,[27],0.133 µg/mL
same,IC80,[27],0.548 µg/mL
same,MPI,[27],100
same,IC50,[28],0.069 µg/mL
same,IC80,[28],0.245 µg/mL
same,MPI,[28],100
same,IC50,[29],0.178 µg/mL
same,IC80,[29],1.17 µg/mL
same,MPI,[29],100
same,IC50,[30],1.98 µg/mL
same,IC80,[30],10.7 µg/mL
same,MPI,[30],97
same,IC50,[31],0.045 µg/mL
same,IC80,[31],0.205 µg/mL
same,MPI,[31],100
same,IC50,[32],0.039 µg/mL
same,IC80,[32],0.18 µg/mL
same,MPI,[32],100
same,IC50,[33],0.061 µg/mL
same,IC80,[33],0.614 µg/mL
same,MPI,[33],100
same,IC50,[34],> 50 µg/mL
same,IC80,[34],> 50 µg/mL
same,MPI,[34],14
same,IC50,[35],> 50 µg/mL
same,IC80,[35],> 50 µg/mL
same,MPI,[35],2
same,IC50,[36],0.135 µg/mL
same,IC80,[36],0.651 µg/mL
same,MPI,[36],100
